assay: yeast display, Sf9 membrane polyspecificity reagent, FACS + sequencing; frameworks hold sequencing errors
In short: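 Genes from sorted yeast were amplified by colony PCR, read by MiSeq 2 × 250 sequencing and filtered on CDR length. These cells carried a synthetic nanobody library in Saccharomyces cerevisiae BJ5465 and were sorted by FACS into low and high (top ~1%) gates on anti-HA and streptavidin fluorescence. Polyreactivity is labelled according to the gate of origin.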

Sequence | polyreactivity (PSR sort gate)
QVQLVESGGGLVQAGGSLRLSCAACGIIFEYNAMGWYRQAPGKVRELVASIDSGGSTNYADSVKGRFTISRDNAKNTVYLQKNSLKPEDTAVYYCNADDTTVSPWYYYYQSYYWGQGTQVTVSS | low polyreactivity
QVQLVESGGGLVQAGGSLRLSCAACGRTFQHYAMGWYRQAPGKERELVAAISSGGRTYYADSVKGRFTISRDNAKNTVYLLMNSLKPEDTAVYYCAARYHGRDPRQIRYGYWGQGTQVNVSS | high polyreactivity
QVQLVESGGGLVQAGGSLRLSCAACGRTFWSYAMGWYLQAPGKERELVAAINSGGSTDYADSVKGRFTISRDNAKNTVYLQMNSLKPEDTAVYYCAADTWYGFDWGQGTQVTVSS | high polyreactivity
QVQLVESGGGLVQAGGSLRLSCAACGSIFYYYAMGWYRQAPGKERELVAAITVSGGRTYYADSVKGRFTISRDNAKNSVYLQMNSLKPEDTAVYYCAARRGRYSYYYWGQGTQVTVSS | high polyreactivity
QVQLVESGGGLVQAGGSLRLSCAACGSTFSPNAMGWYRQAPGKERELVAAISGSGASTYYADSVKGRFTISRDNAKNTVYLQMNSLKPEDTAVYYCAADKPGIFSRFDYWGQGTQVTVSS | low polyreactivity
QVQLVESGGGLVQAGGSLRLSCAACGSTFSVHAMGWYRQAPGKERELVAAISWGGTSTYYADSVKGRFTISRDNAKNTVYLQMNSLKPEDTAVYYCAAVSRGKVNTVYYWGQGTQVTVSS | high polyreactivity
QVQLVESGGGLVQAGGSLRLSCAADGFTFYVYAMGWYRQAPGKERELVADISRRGGSTYYADYVKGRFTISRDNEKNHVYLQMNSLKPEDTAVYYCAAQYYGGGTYWYRYGYWGQGTQVTLSS | high polyreactivity
QVQLVESGGGLVQAGGSLRLSCAAPGLTFWSYAMGWYRPAPGKERELVADITYRGGSTYYADSVKGRFTISRDNAKNTVYLQMNSLKPEDTAVYYCAARKKYRFDYWGQGTQVTVSS | high polyreactivity
QVQLVESGGGLVQAGGSLRLSCAAPGSIFGTNAMGWYRQAPGKERELVAAINWSGGTTYYADSVKGRFTISRDNAKNTVYLQMNSLKPEDTAVYYCATVFFVLPPTRFDSWGQGTQVTVSS | low polyreactivity
QVQLVESGGGLVQAGGSLRLSCAASAFTFKYNVMGWYRQAPGTERELLAAISKRGGNTYYADSVKGRFTISRDNAKNTVYLQMNSLKPEDTAVYYCAADPTSPETSGQGYDYWGQGTQVTVSS | high polyreactivity
QVQLVESGGGLVQAGGSLRLSCAASAFTFYTNAMGWYRQAPGKERELVAAISGGGSTKYADSVKGRFTISRDNAKNTVYLQMNSLKPEDTAVYYCAAQIKWGYRRNRHDYWGQGTQVTVSS | high polyreactivity
QVQLVESGGGLVQAGGSLRLSCAASAITVKRDVMGWYRQAPGKERELVAAISRTGGSTYYADSVKGRFTISRDNAKNTVYLQMNSLKPEDTAVYYCAAATCPGIYDYWGQGTQVTVSS | high polyreactivity
QVQLVESGGGLVQAGGSLRLSCAASALTFQAYTMGWYRQAPGKERELDAAISRNGGRTYYADSVKGRFTISRDNAKNTVYLQMNSLKPEDTAVYYCAAVHFVVSPGRGDDYWGQCTQVTVSS | high polyreactivity
QVQLVESGGGLVQAGGSLRLSCAASALTLRHYAMGWYRQAPGKERELVARIRISGRTYYADSVKGRFTISRDNAKNTVYLQMNSLKPEDTAVYYCAKVQFATSPPGLTLSYYYWGQGTQVTVSS | high polyreactivity
QVQLVESGGGLVQAGGSLRLSCAASANTFPTNAMGWYRQAPGKEMELVATISLGAGSTHYADSVKVRFTISRDNAKNTVYLQMNSLTPEDTAVYYCAARSRRWYDYDYWGQGTQVTVSS | low polyreactivity
QVQLVESGGGLVQAGGSLRLSCAASARIFRYYAMGWYRQAPGKERELVAGISWRGSSTYYADSVKGRFTISRDNAKNTVYLQMNSLKPEDTAVYYCNRDQSNIPVTGGRFYYWRQGTQVTVSS | high polyreactivity
QVQLVESGGGLVQAGGSLRLSCAASARTLAHYTMGWYRQAPGKERELVAAITFSGGRTYYADSVKGRFTISRDTAKNTVYLQMNSLKPEDTAVYYCNADGYWVVPLDDSYEYWGQGTQVTVSS | low polyreactivity
QVQLVESGGGLVQAGGSLRLSCAASASIFASNAMGLYRQAPGKERELVAAINSADSTNYADSVKGRFRISRDNAKNTVYLQMNRLKPEDPAVFYCARGLEERYDYWGLGTQVTVSS | low polyreactivity
QVQLVESGGGLVQAGGSLRLSCAASASIFDHYAMGCYRQAPGKARELVAAITWDGTSTYYADSVKGRFTISRDNAKNTVYLQMNSLKPEDTAVYYCADDFYPYSWEEVDYWGQGTQVTVSS | low polyreactivity
QVQLVESGGGLVQAGGSLRLSCAASASIFVNNAKGWYRQATGKERELVAAISSRSSRTIYADSVKGRFTISRDNAKKTVYLQMNSLKPEDTAVYYCAVKKRAPDGDYWGQGTQVTVSS | high polyreactivity
QVQLVESGGGLVQAGGSLRLSCAASASIYFPYTMGWYRQAPGKERELVARISLGGGRTYYADSVKGRFTISRDNAKNTVYLQMNSLKPEDTAVYYCAAVYYYGKWSYGYWIYEYWGQGTQVTVSS | high polyreactivity
QVQLVESGGGLVQAGGSLRLSCAASASTFGGYVMARYRQAPGKERELVAAISGNGASTTYADSVKGRFTISRDNAKNTVYLQMNSLKPEDTAVYDSAALFRKAHSDYDYWGQGTQVTVSS | low polyreactivity
QVQLVESGGGLVQAGGSLRLSCAASCVRNAMGWYRQAPGKERELVAAITSGGNTNYADSVKGRFTISRDNAKNTVYLQMNSLKPEDTAVYYCAKDLLYYTQQGTGVVDYDYWGQGTQVTVSS | low polyreactivity
QVQLVESGGGLVQAGGSLRLSCAASDAMGWYRRAPGKERELVASISNGVSTNYADSVKGRFTISRDNAKNTVYLQMNSLKPEVTAVYYCASDAKTVGRDDLYWYEVEFDYWGQGTQVSVSS | low polyreactivity
QVQLVESGGGLVQAGGSLRLSCAASESIFVRNAMGWYRQAPGKERELVASITYSGSRTYYADSVKGRFTISRDNAKNTVYLQMNRLKPEDTAVYYCAKVRVLVDKWSTFYEYYYWVQGTQVTVSS | low polyreactivity
QVQLVESGGGLVQAGGSLRLSCAASGAIFDWYAMGGDRPAPGKERELVADITWSGDSTYYADSVKGRFTISRDHAKNTVYLKMNSLKPEDTAVFYCAADIWFYTYYEYDYWGQGTQVTVSS | high polyreactivity
QVQLVESGGGLVQAGGSLRLSCAASGAIFFFNAMGWYRQAPGKEREFVAAITSSSGRTYYADSVKGRFTISRDNAKNSVYLQMNSLKPEDTAVYSCDADWAWLQWAYDYWGQGTKVTVSS | low polyreactivity
QVQLVESGGGLVQAGGSLRLSCAASGAIFGGYAMGWYRQAPGKERELVAAISSGGSTNYADSVKGRFTISRDNAKNTVYLQMNSLKPEDTAVYYCAVRGRLPHARQRGYVPKYYYWGQGTQVTVSS | high polyreactivity
QVQLVESGGGLVQAGGSLRLSCAASGCTFPLYLMGWYRQAPGKERELVAAIDWSGGSTYYADSVKGRFTISRDNAKNTVYLQMNSLKPEDTAVYYCAARYTSLRNYGYDYWGQGTQVTVSS | low polyreactivity
QVQLVESGGGLVQAGGSLRLSCAASGDISYIYAMGWYRQAPGKEREMVADISSSVGNTYYADSVKGRFTISRDNAKNTVYLQMNSLKPEDTAVYYCNADYVQPTESGGTYDYWGQGTQVTVSS | low polyreactivity

— the nanobody polyreactivity screen of Harvey et al. (2022)
